How the values were obtained:
human Trop-2 [1] = biological target: T1, human Trop-2 (human, UniProt P09758 27-323); experiment: cell-based or functional assay
T1 sequence (looked up): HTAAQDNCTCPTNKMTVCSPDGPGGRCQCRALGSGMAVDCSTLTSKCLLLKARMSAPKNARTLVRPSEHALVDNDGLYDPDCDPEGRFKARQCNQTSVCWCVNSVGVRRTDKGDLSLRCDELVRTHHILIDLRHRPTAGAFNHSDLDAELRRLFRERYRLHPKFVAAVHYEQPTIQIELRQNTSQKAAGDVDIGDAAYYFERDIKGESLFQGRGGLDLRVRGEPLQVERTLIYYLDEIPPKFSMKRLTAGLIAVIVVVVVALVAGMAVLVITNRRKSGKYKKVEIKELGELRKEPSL

human Trop-2 [2] = biological target: T1, human Trop-2; experiment: cell-based or functional assay; remark: listed apart in the source
mouse Trop-2 = biological target: T2, mouse Trop-2 (mouse, UniProt Q8BGV3 25-270, limits assumed); experiment: not described (data not shown)
T2 sequence (looked up): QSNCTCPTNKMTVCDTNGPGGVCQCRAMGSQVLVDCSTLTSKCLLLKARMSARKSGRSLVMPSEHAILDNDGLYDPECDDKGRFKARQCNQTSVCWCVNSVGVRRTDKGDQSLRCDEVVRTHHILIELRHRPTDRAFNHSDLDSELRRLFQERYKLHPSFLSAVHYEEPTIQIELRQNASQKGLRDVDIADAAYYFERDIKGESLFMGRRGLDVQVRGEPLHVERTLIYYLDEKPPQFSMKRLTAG

mouse CD3 = mouse CD3 (mouse, UniProt P22646 22-108); experiment: not described (data not shown)
mouse CD3, sequence (P22646 22-108): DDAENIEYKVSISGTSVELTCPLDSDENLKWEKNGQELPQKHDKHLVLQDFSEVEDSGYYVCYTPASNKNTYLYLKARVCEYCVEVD

- T-cell lysis of NCI-N87, very active donor, IC50 (human Trop-2 [1]): 0.37 pM
- T-cell lysis of NCI-N87, very active donor, with 0.1 nM 20*-2b, IC50 (human Trop-2 [1]): 0.05 pM
- T-cell lysis of NCI-N87, very active donor, with 0.1 nM peginterferonalfa-2a, IC50 (human Trop-2 [1]): 0.14 pM
- T-cell lysis of NCI-N87, very weak donor T cells, EC50 (human Trop-2 [1]): 39 pM
- T-cell lysis of NCI-N87, very weak donor T cells, with peginterferonalfa-2a, EC50 (human Trop-2 [1]): 1.4 pM
- T-cell mediated lysis of Capan-1, IC50 (human Trop-2 [1]): 29 pM
- T-cell mediated lysis of NCI-N87, IC50 (human Trop-2 [1]): 0.85 pM
- binding result (mouse Trop-2): no binding
- binding result (mouse CD3): no binding
B1: (E1)-3s, anti-Trop-2 x anti-CD3 trivalent bispecific DNL complex (two CH1-DDD2-Fab-hRS7 + one scFv-AD2-Okt3) (bispecific antibody)
heavy (part 1 of 2): QVQLQQSGSELKKPGASVKVSCKASGYTFTNYGMNWVKQAPGQGLKWMGWINTYTGEPTYTDDFKGRFAFSLDTSVSTAYLQISSLKADDTAVYFCARGGFGSSYWYFDVWGQGSLVTVSS
heavy (part 2 of 2): not shown
light: DIQLTQSPSSLSASVGDRVSITCKASQDVSIAVAWYQQKPGKAPKLLIYSASYRYTGVPDRFSGSGSGTDFTLTISSLQPEDFAVYYCQQHYITPLTFGAGTKVEIK
scFv: not shown
notes: also called (E1)-35; TROP2-targeting bsAb; not shown: human CH1, first 4 hinge residues and Gly/Ser linker; human kappa constant domain
- T-cell killing of BxPC3, IC50 (human Trop-2 [1]): 0.4 pM
- ex vivo T cell redirected killing of BxPC3, donor 1, IC50 (human Trop-2 [2]): 1.06 pM
- ex vivo T cell redirected killing of BxPC3, donor 2, IC50 (human Trop-2 [2]): 0.56 pM
- ex vivo T cell redirected killing of BxPC3, donor 3, IC50 (human Trop-2 [2]): 0.32 pM
- ex vivo T cell redirected killing of Capan-1, donor 1, IC50 (human Trop-2 [2]): 35.6 pM
- ex vivo T cell redirected killing of Capan-1, donor 2, IC50 (human Trop-2 [2]): 248 pM
- ex vivo T cell redirected killing of Capan-1, donor 4, IC50 (human Trop-2 [2]): 8.51 pM
- ex vivo T cell redirected killing of NCI-N87, donor 1, IC50 (human Trop-2 [2]): 6.76 pM
- ex vivo T cell redirected killing of NCI-N87, donor 2, IC50 (human Trop-2 [2]): 34 pM
